From publication PMC3777401

T1: FLAG-CTCF-6xHis (UniProt Q61164 1-736)
T1 sequence: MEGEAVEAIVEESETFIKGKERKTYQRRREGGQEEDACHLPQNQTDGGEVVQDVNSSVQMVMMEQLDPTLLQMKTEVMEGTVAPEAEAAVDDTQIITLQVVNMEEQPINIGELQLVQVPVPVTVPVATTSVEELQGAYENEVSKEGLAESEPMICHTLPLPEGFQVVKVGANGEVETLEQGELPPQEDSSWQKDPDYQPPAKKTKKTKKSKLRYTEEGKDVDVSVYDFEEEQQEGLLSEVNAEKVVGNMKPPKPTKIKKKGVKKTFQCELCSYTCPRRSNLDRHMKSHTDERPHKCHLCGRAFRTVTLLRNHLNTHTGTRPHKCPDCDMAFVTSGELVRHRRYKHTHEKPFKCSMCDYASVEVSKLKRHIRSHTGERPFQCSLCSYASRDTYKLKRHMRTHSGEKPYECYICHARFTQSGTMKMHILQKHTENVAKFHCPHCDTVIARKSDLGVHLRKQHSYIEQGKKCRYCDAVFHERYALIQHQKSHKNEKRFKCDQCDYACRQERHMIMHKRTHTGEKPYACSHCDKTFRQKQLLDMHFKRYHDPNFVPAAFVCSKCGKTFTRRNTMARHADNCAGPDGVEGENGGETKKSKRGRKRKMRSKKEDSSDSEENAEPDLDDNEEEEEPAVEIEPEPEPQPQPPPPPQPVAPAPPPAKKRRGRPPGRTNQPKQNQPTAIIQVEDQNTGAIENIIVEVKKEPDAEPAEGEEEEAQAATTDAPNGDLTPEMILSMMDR

B1: P2 (dsDNA)
DNA 1: GAATGTGTCTAAGATGGCGGAAGTCATGTGACCTGCCCTCTAGTGGTTTCTTTCAGTGATTTTTTTTTTGGCGGGCTTTA
DNA 2: TAAAGCCCGCCAAAAAAAAAATCACTGAAAGAAACCACTAGAGGGCAGGTCACATGACTTCCGCCATCTTAGACACATTC
B2: P1 (dsDNA)
DNA 1: TTGTGGCCACTCCTCTTCTGGTCTCTCCGCCTTCAGCGCCGCGGATCAGTTAAAGGCGTGCAACGGCTTGCTCCAGCCAT
DNA 2: ATGGCTGGAGCAAGCCGTTGCACGCCTTTAACTGATCCGCGGCGCTGAAGGCGGAGAGACCAGAAGAGGAGTGGCCACAA
B3: Xist_5' (dsDNA)
DNA 1: TTTGGCTTCAGATGCCTTGGAAAGATTCATGCTGCCACCTGCTGGTTTATTCAGTCTGTGTGCATCATTTATTTACTTGT
DNA 2: ACAAGTAAATAAATGATGCACACAGACTGAATAAACCAGCAGGTGGCAGCATGAATCTTTCCAAGGCATCTGAAGCCAAA
B4: RS14C (dsDNA)
DNA 1: CTATGCATTAGGTTTGGGTGTTATACCCGTGTAGGCCAGCAGAGGGTGTCGGATCCCAAGGAAACCAAGTTACAGACGCC
DNA 2: GGCGTCTGTAACTTGGTTTCCTTGGGATCCGACACCCTCTGCTGGCCTACACGGGTATAACACCCAAACCTAATGCATAG

Key:
FLAG-CTCF-6xHis [1] = target: T1, FLAG-CTCF-6xHis; test: competition
FLAG-CTCF-6xHis [2] = target: T1, FLAG-CTCF-6xHis; test: EMSA

Binder | binding result (FLAG-CTCF-6xHis [1]) | binding result (FLAG-CTCF-6xHis [2])
B1 | binds | 
B2 |  | no binding
B3 |  | binds
B4 |  | binds
